B1: TCAP (parent)
chain: YQRVLPLPIFTPAKMGATKEERED

Variants of: B1
Assay: protein stability index of a GFP-peptide fusion (GPS, HEK-293T) (PSI 1-6); higher = more stable
Conditions: c terminus: a fixed tail appended
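Further: lentivirally expressed fusions sorted by FACS into six bins by GFP to DsRed ratio, PSI derived from sequencing read proportions per bin multiplied by bin number.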

Protein stability index, by site and new letter:
I9: L 2.41; D 3.63; T 4.02; F 2.31; S 3.79; N 4.47; R 4.16; H 2.83; W 2.2; G 3.79; P 4.02; K 3.96; A 3.96; V 2.88
A13: G 2.38; F 2.04; N 1.67; Y 1.86; K 2.44; I 2.18; E 2.9; T 2.64; S 2.53; D 2.95; P 3.8; C 1.72; H 1.69; Q 1.95; M 2.31; R 2.44; W 2.02; V 2.2; L 1.76
P12: M 2.91; G 3.11; F 2.98; T 3.26; W 1.94; D 2.92; K 3.2; E 3.02; A 3.44; R 3.47; N 2.82; V 3.07; H 3.12; S 3.2; C 2.16; Y 2.74; I 3.48; L 2.64; Q 3.84
E20: A 1.94; C 1.87
P8: M 2.36; K 2.18; D 1.57; C 2.62; T 2.32; F 1.45; N 2.11; H 2.15; V 2; W 2.73; Y 2.51; A 1.96; E 2.46; Q 2.12; R 1.88; G 1.37; L 1.64; I 2.15
P6: R 1.66; E 2.22; T 2.05; Q 1.91; D 2.62; W 1.56; M 1.65; L 1.73; K 1.89; N 1.35; C 1.72; A 2.09; Y 2.35; I 2.19; G 1.9; F 2.25; S 1.82; H 2.11; V 2.17
M15: T 2.05; I 2.1; Y 2.21; R 2.21; A 2.38; D 2.23; N 2.38; F 2.14; Q 2.26; E 2.64; H 2.57; S 2.92; L 2.42; W 1.72; V 2.39; G 2.31; K 2.38; C 2.12; P 2.69
T11: C 1.79; S 2.36; K 3.63; L 2.71; Q 3.44; I 2.68; A 1.87; E 2.52; M 2.08; N 3.49; W 2.25; D 3.96; H 3.49; V 2.67; F 2.25; P 3.31; Y 2.62; R 3.21; G 3.12
G16: A 1.9; M 1.56; S 2.16; Y 2.07; D 1.92; E 2.16; Q 2.24; C 2.06; V 2.39; I 1.92; L 1.81; R 2.05; T 1.95; P 1.96; N 1.67; W 1.8; F 2.14; H 1.34; K 1.7
L5: M 1.9; N 1.8; E 2.42; W 2.81; T 1.98; R 2.7; Q 2.03; D 3.06; H 2.08; G 2.89; C 1.86; V 1.96; P 2.33; A 2.05; K 2.13; S 1.97; F 2.52; Y 2.37; I 1.87

Source: the supplement of paper PMC10567573
